Test results published in PMC12287439 (Nature Communications, 2025).
Positions count from the first letter of the chain named. Numbers in names are those of the source. Blank lines part the entries; values can stand above or below the molecule they belong to.

What was measured:
[1] = target: T1, LYCHOS (Homo sapiens, UniProt Q7Z3F1, Y57A); experiment: cryo-EM structure; type: binding
T1 sequence (Q7Z3F1 1-870 Y57A): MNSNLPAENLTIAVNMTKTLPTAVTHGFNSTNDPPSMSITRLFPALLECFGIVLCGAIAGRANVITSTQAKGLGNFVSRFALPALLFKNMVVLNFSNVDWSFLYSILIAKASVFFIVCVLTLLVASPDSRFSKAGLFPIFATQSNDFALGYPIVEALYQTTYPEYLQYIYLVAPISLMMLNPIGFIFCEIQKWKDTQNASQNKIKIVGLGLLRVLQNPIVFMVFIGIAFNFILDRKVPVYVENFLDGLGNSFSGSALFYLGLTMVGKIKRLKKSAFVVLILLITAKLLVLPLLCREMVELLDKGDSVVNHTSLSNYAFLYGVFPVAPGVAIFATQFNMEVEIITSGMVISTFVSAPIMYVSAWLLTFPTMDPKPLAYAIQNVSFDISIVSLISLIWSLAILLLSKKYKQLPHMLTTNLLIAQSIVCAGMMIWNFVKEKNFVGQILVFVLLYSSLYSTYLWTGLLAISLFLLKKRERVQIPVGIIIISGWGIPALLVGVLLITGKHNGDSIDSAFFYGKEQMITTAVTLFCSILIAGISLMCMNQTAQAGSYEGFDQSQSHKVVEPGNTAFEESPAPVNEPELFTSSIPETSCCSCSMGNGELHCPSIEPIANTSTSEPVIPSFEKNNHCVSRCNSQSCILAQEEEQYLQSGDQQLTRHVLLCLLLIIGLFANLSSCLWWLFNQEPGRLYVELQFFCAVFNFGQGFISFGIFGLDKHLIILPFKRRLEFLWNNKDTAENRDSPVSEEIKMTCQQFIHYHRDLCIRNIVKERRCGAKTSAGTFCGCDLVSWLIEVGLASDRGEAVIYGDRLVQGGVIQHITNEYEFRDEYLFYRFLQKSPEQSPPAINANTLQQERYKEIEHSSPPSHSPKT

[2] = target: LYCHOS (Homo sapiens, UniProt Q7Z3F1); experiment: BRET recruitment of GATOR1; type: cell-based
Sequence of LYCHOS (Homo sapiens, UniProt Q7Z3F1) (Q7Z3F1 whole entry): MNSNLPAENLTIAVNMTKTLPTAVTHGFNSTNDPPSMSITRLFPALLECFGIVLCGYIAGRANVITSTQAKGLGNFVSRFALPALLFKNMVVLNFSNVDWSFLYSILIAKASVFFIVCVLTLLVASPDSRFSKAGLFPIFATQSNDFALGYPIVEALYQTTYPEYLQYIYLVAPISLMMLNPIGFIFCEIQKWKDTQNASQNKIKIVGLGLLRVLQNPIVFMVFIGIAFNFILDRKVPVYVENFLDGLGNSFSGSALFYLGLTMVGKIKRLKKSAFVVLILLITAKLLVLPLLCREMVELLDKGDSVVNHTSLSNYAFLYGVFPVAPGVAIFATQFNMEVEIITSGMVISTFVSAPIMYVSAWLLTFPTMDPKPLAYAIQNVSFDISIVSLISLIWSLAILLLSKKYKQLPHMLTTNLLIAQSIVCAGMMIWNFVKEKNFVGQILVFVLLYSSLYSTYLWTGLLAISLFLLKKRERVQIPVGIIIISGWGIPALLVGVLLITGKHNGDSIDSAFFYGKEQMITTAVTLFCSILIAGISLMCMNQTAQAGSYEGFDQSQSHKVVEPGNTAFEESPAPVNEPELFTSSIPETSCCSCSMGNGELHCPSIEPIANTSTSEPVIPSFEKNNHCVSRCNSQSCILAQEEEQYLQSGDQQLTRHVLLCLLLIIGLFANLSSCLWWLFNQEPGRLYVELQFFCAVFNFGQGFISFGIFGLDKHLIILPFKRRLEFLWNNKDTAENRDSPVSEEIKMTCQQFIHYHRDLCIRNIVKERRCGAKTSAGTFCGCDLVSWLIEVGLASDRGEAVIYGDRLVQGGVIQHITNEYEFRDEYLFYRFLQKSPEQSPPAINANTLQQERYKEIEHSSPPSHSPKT
Sequence of LYCHOS (Homo sapiens, UniProt Q7Z3F1) (Q8WTW4 whole entry partner): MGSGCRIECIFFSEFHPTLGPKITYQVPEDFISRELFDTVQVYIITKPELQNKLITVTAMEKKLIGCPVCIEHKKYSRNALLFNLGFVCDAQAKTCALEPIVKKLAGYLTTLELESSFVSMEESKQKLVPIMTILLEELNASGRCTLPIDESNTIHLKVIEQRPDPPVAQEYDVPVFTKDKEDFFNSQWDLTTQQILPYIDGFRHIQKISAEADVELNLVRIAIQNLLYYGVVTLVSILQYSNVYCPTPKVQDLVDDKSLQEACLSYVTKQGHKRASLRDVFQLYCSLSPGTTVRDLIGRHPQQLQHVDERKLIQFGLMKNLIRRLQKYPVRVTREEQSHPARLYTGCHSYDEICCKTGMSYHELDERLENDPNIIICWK
Sequence of LYCHOS (Homo sapiens, UniProt Q7Z3F1) (Q12980 whole entry partner): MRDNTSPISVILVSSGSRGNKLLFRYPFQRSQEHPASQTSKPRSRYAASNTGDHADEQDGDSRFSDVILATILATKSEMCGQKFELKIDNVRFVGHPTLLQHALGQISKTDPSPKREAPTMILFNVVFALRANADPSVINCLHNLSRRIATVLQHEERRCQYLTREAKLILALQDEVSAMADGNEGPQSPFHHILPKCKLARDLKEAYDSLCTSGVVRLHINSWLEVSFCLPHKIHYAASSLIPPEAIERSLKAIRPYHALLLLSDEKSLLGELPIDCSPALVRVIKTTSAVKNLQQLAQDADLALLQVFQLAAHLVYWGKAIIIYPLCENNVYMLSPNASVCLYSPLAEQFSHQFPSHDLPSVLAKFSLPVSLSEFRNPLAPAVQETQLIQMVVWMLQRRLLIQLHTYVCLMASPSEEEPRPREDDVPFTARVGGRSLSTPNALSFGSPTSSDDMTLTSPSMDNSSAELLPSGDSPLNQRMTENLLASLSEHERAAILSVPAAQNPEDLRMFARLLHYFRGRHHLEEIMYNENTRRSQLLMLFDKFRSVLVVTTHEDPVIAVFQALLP
Sequence of LYCHOS (Homo sapiens, UniProt Q7Z3F1) (O75140 whole entry partner): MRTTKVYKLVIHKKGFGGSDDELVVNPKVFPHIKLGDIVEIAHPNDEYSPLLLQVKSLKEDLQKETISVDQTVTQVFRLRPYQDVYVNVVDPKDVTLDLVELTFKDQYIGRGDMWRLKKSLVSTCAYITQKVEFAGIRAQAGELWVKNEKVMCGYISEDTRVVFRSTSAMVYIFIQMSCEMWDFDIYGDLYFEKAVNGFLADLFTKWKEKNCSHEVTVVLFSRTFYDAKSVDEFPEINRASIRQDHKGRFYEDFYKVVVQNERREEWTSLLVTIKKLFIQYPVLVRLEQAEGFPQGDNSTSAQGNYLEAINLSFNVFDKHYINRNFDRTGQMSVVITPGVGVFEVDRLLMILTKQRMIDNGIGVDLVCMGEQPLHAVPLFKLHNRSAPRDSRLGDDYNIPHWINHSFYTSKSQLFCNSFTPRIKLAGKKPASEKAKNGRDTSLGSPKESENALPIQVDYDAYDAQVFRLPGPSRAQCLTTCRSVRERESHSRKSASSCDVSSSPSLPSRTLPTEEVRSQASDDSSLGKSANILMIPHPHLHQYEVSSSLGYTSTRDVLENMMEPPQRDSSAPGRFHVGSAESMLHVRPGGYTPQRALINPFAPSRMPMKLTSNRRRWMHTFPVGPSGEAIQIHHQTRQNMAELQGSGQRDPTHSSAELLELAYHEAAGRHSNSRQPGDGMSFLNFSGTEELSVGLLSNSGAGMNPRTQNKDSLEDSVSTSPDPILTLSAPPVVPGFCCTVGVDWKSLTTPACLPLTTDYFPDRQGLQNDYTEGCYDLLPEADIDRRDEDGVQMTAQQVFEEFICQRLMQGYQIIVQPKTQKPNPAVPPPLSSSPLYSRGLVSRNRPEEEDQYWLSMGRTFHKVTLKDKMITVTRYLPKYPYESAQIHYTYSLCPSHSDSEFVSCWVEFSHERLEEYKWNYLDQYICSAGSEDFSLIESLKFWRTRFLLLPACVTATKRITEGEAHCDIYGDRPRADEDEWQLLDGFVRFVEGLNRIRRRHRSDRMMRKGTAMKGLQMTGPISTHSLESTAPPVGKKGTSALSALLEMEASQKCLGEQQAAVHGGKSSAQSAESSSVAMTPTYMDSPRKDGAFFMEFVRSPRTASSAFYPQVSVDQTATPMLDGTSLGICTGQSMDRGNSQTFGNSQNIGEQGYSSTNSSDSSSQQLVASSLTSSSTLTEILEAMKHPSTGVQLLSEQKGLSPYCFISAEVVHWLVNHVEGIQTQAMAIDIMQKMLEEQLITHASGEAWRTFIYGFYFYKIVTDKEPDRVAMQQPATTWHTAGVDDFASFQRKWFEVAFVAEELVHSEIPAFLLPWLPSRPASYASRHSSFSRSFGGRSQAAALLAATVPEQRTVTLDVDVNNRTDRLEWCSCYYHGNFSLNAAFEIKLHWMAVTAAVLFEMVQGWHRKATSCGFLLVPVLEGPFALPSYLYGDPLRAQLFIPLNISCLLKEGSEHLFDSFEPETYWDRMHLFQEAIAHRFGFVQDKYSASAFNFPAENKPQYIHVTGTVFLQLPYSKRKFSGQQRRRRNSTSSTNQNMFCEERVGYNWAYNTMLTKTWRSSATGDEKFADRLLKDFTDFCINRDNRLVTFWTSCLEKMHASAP

[3] = target: the molecule itself; experiment: cryo-EM structure

Molecule: CC(C)CCC[C@@H](C)[C@H]1CC[C@H]2[C@@H]3CC=C4C[C@@H](OC(=O)CCC(=O)O)CC[C@]4(C)[C@H]3CC[C@]12C [CHS, cholesteryl hemisuccinate]
cryo-EM structure (3.21 Å, contracted state) [1]: We found there exist two CHS molecules in the CBC, with which GLD is locked in contracted state

EC50 [2]: 165 nM
Molecule: CC(C)CCC[C@@H](C)[C@H]1CC[C@H]2[C@@H]3CC=C4C[C@@H](O)CC[C@]4(C)[C@H]3CC[C@]12C [cholesterol]

B1: human LYCHOS, wild type (lysosomal cholesterol signaling protein) (natural protein, UniProt Q7Z3F1 1-870, looked up)
chain: T1 sequence (Q7Z3F1 1-870 Y57A) with A57Y
stoichiometry N [3]: 2

B2: human LYCHOS Y57A (natural protein, UniProt Q7Z3F1 1-870, looked up)
chain: T1 sequence (Q7Z3F1 1-870 Y57A)
stoichiometry N [3]: 2

B3: LYCHOSPLD (permease-like domain of human LYCHOS) (domain or fragment)
chain: MNSNLPAENLTIAVNMTKTLPTAVTHGFNSTNDPPSMSITRLFPALLECFGIVLCGYIAGRANVITSTQAKGLGNFVSRFALPALLFKNMVVLNFSNVDWSFLYSILIAKASVFFIVCVLTLLVASPDSRFSKAGLFPIFATQSNDFALGYPIVEALYQTTYPEYLQYIYLVAPISLMMLNPIGFIFCEIQKWKDTQNASQNKIKIVGLGLLRVLQNPIVFMVFIGIAFNFILDRKVPVYVENFLDGLGNSFSGSALFYLGLTMVGKIKRLKKSAFVVLILLITAKLLVLPLLCREMVELLDKGDSVVNHTSLSNYAFLYGVFPVAPGVAIFATQFNMEVEIITSGMVISTFVSAPIMYVSAWLLTFPTM
stoichiometry N [3]: 2
